{"source": "paper PMC2845462", "molecular_target": "FLAG-HA-Twi1p-WT (Tetrahymena thermophila) (UniProt Q8MXZ9)", "test": "co-IP"}
{"substance": "Giw1p (natural protein)", "values": [{"measurement": "amount co-precipitated after 100 μg/mL RNase A, against the untreated lysate", "value": 60, "unit": "%"}]}
